Source: the supplement of paper PMC11865577

Assays:
Experiment in all cases: pull-down binding Z-score (relative to library population); higher = stronger binding
[1] = test system: TO-N3 (biotin conjugate); conditions: RNA library: Library-2
Procedure, shortened: (§1)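 Binding is given as a Z-score against the library mean and standard deviation, calculated after removing the beads-only signal and averaging barcoded replicate probes without their highest and lowest values. Cy5- or Cy3-end-labelled RNA library (1 μg) was heat-folded in phosphate/NaCl/KCl buffer and incubated 60 min at 25 °C with streptavidin beads bearing 100 pmol of biotin-conjugated small molecule. After three washes, RNA eluted in hot SDS was hybridised to a DNA barcode microarray for 20 h at 55.5 °C.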

[2] = test system: TO-3-N3 (biotin conjugate); conditions: RNA library: Library-2
Procedure, shortened: as §1

[3] = test system: TO-N3-2 (biotin conjugate); conditions: RNA library: Library-2
Procedure, shortened: as §1

[4] = test system: G-clamp-N3 (biotin conjugate); conditions: RNA library: Library-1 (pre-miRNA loops + repeats)
Procedure, shortened: as §1

[5] = test system: TO-3-N3-2 (biotin conjugate); conditions: RNA library: Library-2
Procedure, shortened: as §1

Sequence | pull-down binding Z-score [1] | pull-down binding Z-score [2] | pull-down binding Z-score [3] | pull-down binding Z-score [4] | pull-down binding Z-score [5]
UAUAGUGUGUUUGAUUUGCACUGUA [hsa-mir-4703] | -0.424 | -0.156 | -1.07 | 0.116 | -0.198
GUGUCGCCCCACGAGGGGGACUGU [hsa-mir-4322] | 0.327 | -0.00462 | 0.483 | -0.152 | -0.362
AGGGCAAGUCCAAAGGUAUACAGUUGGUCUGUUCA [hsa-mir-7107] | -0.107 | -0.459 | 0.381 | 1.04 | -0.208
CUGUGCAGGGCCAACUGUGCACAC [hsa-mir-3681] | 1.15 | 0.827 | 1.14 | 0.785 | 0.227
UCUCAAAAUAAUUCUGCAGUGAGA [hsa-mir-4524b] | -1.13 | -0.872 | -0.868 | 2.26 | 0.0866
UCAGUUUUGUAGCAUCAAAACU [hsa-mir-4521] | -0.342 | -0.308 | -0.134 | -0.216 | -0.161
CUUGUGGUGAAGUGGACCGCACAAG [hsa-mir-99a] | -0.0222 | -0.203 | 1 | 1.24 | 0.00618
UGCACCACUCUCCCUGUGAUGAGGUGAA [hsa-mir-4786] | -0.255 | -0.535 | 0.456 | -0.896 | -0.354
GGUUGGGGUGGGCUGCCUGUGGACCAAUC [hsa-mir-4525] | 2.44 | 2.14 | 1.94 | 0.722 | 1.06
CAGUGGGGACAUG [hsa-mir-4531] | 1.77 | 2.18 | 0.957 | -0.559 | 1.52
GGAUGGGAGACCUGACCCAUCC [hsa-mir-5195] | -0.0467 | -0.0606 | -0.332 | 0.74 | -0.208
CCUGUCCUAUGACAAACAUGGCAGG [hsa-mir-3927] | -0.547 | -0.564 | -0.673 | -0.521 | -0.497
CCUGGAGAGCUGCUGUCUCCAG [hsa-mir-6746] | 0.0297 | -0.114 | 0.355 | 1.35 | -0.596
CUGUGAGGACAUCCAGGGUCACAG [hsa-mir-125a] | 0.903 | 0.423 | 0.969 | 3.76 | 0.169
UCUUCUUUUGGAAGGAAGA [hsa-mir-3122] | -0.591 | -0.175 | -1.53 | 0.729 | -0.532
UUUCUCUUAUGUGAAAAAAAAGAAG [hsa-mir-525] | -0.463 | -0.283 | -0.745 | -1.41 | -0.174
GGAGGCAUGAAUGAGCCAUCUUUCCAAUGCCUUUC [hsa-mir-4743] | -0.118 | -0.573 | 0.952 | -1.03 | -0.332
CUGUUUCUGGUGAAAUAUUCAAACAG [hsa-mir-4433a] | -0.0687 | 0.27 | 0.256 | -0.293 | -0.178
ACUACUGUGCUCUGAGAAGCAGU [hsa-mir-301b] | 0.643 | 0.599 | 0.325 | 1.42 | -0.255
UUCGCAUUAUUUAAUGAUGCCCA [hsa-mir-323b] | -0.467 | -0.392 | -0.486 | -0.751 | -0.241
GCCAGUGUGUAAAAUGAGAACUGAUA [hsa-mir-3074] | 1.14 | 0.677 | 1.66 | 0.474 | 0.757
GGAGCCUUCCCCAGAGGAGUCAGGCC [hsa-mir-4312] | 0.698 | 0.273 | 1.41 | 0.386 | -0.0198
UGCUUUACUUUUAAUGGCA [hsa-mir-548k] | -1.15 | -0.819 | -1.34 | -0.352 | -0.358
UGGCAAUUCAGUAAAAAUGCUCA [hsa-mir-6715b] | -0.281 | -0.296 | 0.143 | -0.751 | -0.14
CUGAGGACAUGCAGUUUCAG [hsa-mir-7702] | -0.651 | -0.471 | -0.304 | 0.946 | -0.579

Sequence | pull-down binding Z-score [1] | pull-down binding Z-score [2] | pull-down binding Z-score [3] | pull-down binding Z-score [4] | pull-down binding Z-score [5]
UAGGUGGUCGAAGUCAUCCACA [hsa-mir-7153] | 0.131 | -0.108 | 0.498 | -0.765 | 0.264
GUGUCCUGAAAUUCACAGGACUG [hsa-mir-4700] | 0.923 | 0.856 | 0.643 | 1.38 | 0.237
GUUGACUGUUGAAUCUCAUGGCAAC [hsa-mir-21] | 0.0029 | -0.114 | 0.204 | -0.474 | -0.186
AUUUCUGUAGCUCUGAGACUAGACCU [hsa-mir-544b] | -0.0563 | -0.442 | 0.409 | -0.0868 | -0.376
CCUCUGUCCUCUGUCCUCUACCUAUAGAGG [hsa-mir-641] | 0.118 | 0.224 | 0.141 | 0.349 | -0.229
UCUUUGGUAAUAAGGUUUGGCAAAGA [hsa-mir-576] | 0.862 | 1.04 | -0.0599 | 1.47 | 0.625
CAGAGUUCCCUUCUUGUGAGCUCAG [hsa-mir-6733] | -0.415 | -0.518 | 0.42 | -0.936 | -0.714
GGCCAUCUGCUAUUCGUCCACCAACCUGACUUGAUCC [hsa-mir-7111] | 0.256 | -0.0213 | 0.477 | 0.0541 | 0.0293
UAGGCUGUUUCCAUCUGUGAGGCCUA [hsa-mir-26a-2] | -0.233 | -0.164 | -0.00853 | -0.141 | -0.375
AGCAUGCACUUAAUGUGGGUGUAUGU [hsa-mir-668] | 0.184 | 0.334 | -0.105 | 0.305 | -0.205
GUCAUUUUUCUGUGACUGCACAUGGC [hsa-mir-3136] | -0.215 | -0.191 | -0.214 | -0.497 | -0.15
GAAGCUGUAAGGUGUUCAGAGGAGCUUU [hsa-mir-30e] | 0.977 | 0.57 | 1.1 | 2.63 | 0.908
GUGUGUGGCGUGGGUGCUGCGGGGCCGUCAGGGUGCCUGCGGGACGCUCAC [hsa-mir-6765] | 1.13 | 0.665 | 1.73 | 1.58 | 0.334
UUUCUCUUGUCUAAAAGAAAAGAAA [hsa-mir-518f] | -0.8 | -0.761 | -0.969 | -0.201 | -0.281
UUCUGUUGUCAGAAAGAAGAGAA [hsa-mir-1283-1] | 0.0942 | 0.146 | -0.0355 | 0.462 | -0.107
UGGCGGCGGCGAGGACACCGCCGCU [hsa-mir-4469] | 1.4 | 1.53 | 0.629 | 0.412 | 0.747
GGGAGGUAAGAAGUCUCUGACUCCU [hsa-mir-5193] | -0.44 | -0.307 | -0.358 | 0.481 | -0.261
CUUGCGGGGCCUUCGCCGCACACAAG [hsa-mir-99b] | 0.328 | 0.198 | 0.595 | 1.51 | -0.148
GGGUCCUAAGGUGUGUCCUC [hsa-mir-1976] | 0.25 | -0.224 | 0.812 | -0.979 | -0.0978
CUGGGGAGCCGGACAGCUCCCUUCCCAG [hsa-mir-3155a] | 0.7 | 0.918 | -0.0145 | 0.802 | -0.168
GUGGGUCAAGUUUAGAGAUGCACCAAC [hsa-mir-490] | 1.43 | 1.32 | 1.5 | 0.572 | 0.519
UCCCCAGAAGCUGAGGAUUAGGGGA [hsa-mir-6503] | -0.0188 | 0.0937 | -0.108 | 1.93 | -0.131
UUUUCUGUCCUGUCCACACAGAAAA [hsa-mir-1537] | -1.27 | -0.957 | -0.902 | -1 | -0.517
CUGCAGAACAUUGCAG [hsa-mir-4310] | -0.727 | -0.487 | -1.08 | 0.0291 | -0.408
CUGAACCCGUGGGUGAGGAGUGCAG [hsa-mir-4690] | 0.515 | 0.367 | 0.925 | 0.824 | 0.0142

Sequence | pull-down binding Z-score [1] | pull-down binding Z-score [2] | pull-down binding Z-score [3] | pull-down binding Z-score [4] | pull-down binding Z-score [5]
CAGUAAGCCUUGACUUAUGGCUAAAUGCUUC [hsa-mir-4273] | 0.0209 | -0.111 | 0.273 | -1.02 | 0.0166
CACCAAAGGGUUAAGGGUUUGCUCUGGAG [hsa-mir-4653] | 0.124 | -0.018 | 0.14 | -0.264 | 0.0957
GAAGCGAGAUGUUUGUCUAAA [hsa-mir-6835] | 0.398 | 0.00611 | 0.915 | -0.211 | 0.262
UAAUGAUUGGAGUCAUUUUCAGAGCAUUA [hsa-mir-3202-1] | -0.407 | -0.304 | -0.537 | 1.44 | -0.262
CAUGCAUGUGUCUAGAAAUAUGUUUU [hsa-mir-507] | 0.0527 | -0.147 | 0.104 | 0.0271 | 0.0237
UGGACUGUGUACCAAUUUCCA [hsa-mir-194-1] | -0.21 | -0.134 | -0.471 | 0.055 | -0.379
ACCUUCCAAGGCUCAGAAGGU [hsa-mir-4650-1_4650-2] | -0.702 | -0.702 | -0.0713 | -0.155 | -0.432
CAGAGGCAUCGGGUCAG [hsa-mir-4746] | 1.19 | 0.807 | 1.35 | 1.75 | 0.516
CAGGCUGUGGCUCUCUGAAAGUC [hsa-mir-148b] | 1.09 | 0.761 | 1.18 | -1.29 | 0.496
UCUGUUGUCUGAAAGAAAACA [hsa-mir-518b_518c] | -0.285 | -0.441 | 0.0545 | -0.569 | 0.0546
GGUUCCCACGCCGCGGCAACC [hsa-mir-6776] | 0.217 | 0.0159 | 0.293 | -1.36 | -0.135
GGUGUCAUGCCCCAAGAUAACC [hsa-mir-634] | -0.387 | -0.514 | 0.0681 | -0.532 | -0.28
CGGAGCCUCGCAGGGUCGGGCUCGGGCUCCCUAACCGUCUCCGCUUCUUC [hsa-mir-6084] | 1.36 | 0.896 | 1.77 | -0.288 | 0.558
CUGGCUUCUCUGGUUCUCCAGCUUACAG [hsa-mir-1269b] | -0.0501 | -0.401 | 0.333 | -1.06 | -0.356
GAUGGAUUCUUAUGCUCCAUC [hsa-mir-136] | -0.631 | -0.326 | -0.9 | 0.328 | -0.443
UUUGUCAUUAAAGUAAUGCAAA [hsa-mir-548m] | 0.0311 | 0.175 | -0.856 | -0.115 | -0.211
AUUGAGAGUUCCUUCUCCUGCUCCUGAU [hsa-mir-6766] | -0.462 | -0.548 | -0.0576 | -0.32 | -0.369
UUUCUAUAACUGGAUGAAA [hsa-mir-498] | -0.488 | -0.457 | -0.778 | -0.372 | -0.431
AGUGAGGCGUCGGCUGUGUUUCU [hsa-mir-2110] | 0.741 | 0.387 | 1.03 | -0.519 | 0.174
CGUUUAGUAGAUGAUUGUGCAUUGUUUCAAAAUG [hsa-mir-224] | -0.502 | -0.714 | -0.183 | -0.24 | -0.358
CUUUGUCAUUAAAACCAAUAACAAAA [hsa-mir-548ap] | 0.0976 | 0.331 | -0.638 | -0.92 | 0.223
UUUUAUCAUUACUUUUAAUGGCAAAA [hsa-mir-548f-2] | 0.761 | 1.12 | -0.404 | 0.854 | 0.834
AGCAAGGUGCGUCGUAUCUUGCU [hsa-mir-4804] | -0.702 | -0.499 | -0.798 | 0.816 | -0.581
GUGAUGUGAGGAGCAACAGGCACCCUCCU [hsa-mir-6792] | 0.246 | -0.0611 | 0.846 | -0.596 | 0.254
AAUGCAGUCUGCACCCUGCUGCAUU [hsa-mir-6504] | 0.0527 | 0.237 | 0.0157 | -0.398 | -0.145
